In patent US20100291682, “SYSTEM FOR TRANSPOSING HYPERACTIVE RECOMBINANT DERIVATIVES OF MOS-1 TRANSPOSON” (published 2010):
Substitutions are numbered along the chain they refer to.

What was measured:
Assay in all cases: cell_activity; 3T46 transposition in E. coli T5 vs 3T3/WT
Details in all cases: chain copies: 2
[1] = target: T1, Mos-1 transposase FQ (Drosophila mauritiana, UniProt Q7JQ07 SEQ:1-345, F53Y,Q91R)
T1 sequence: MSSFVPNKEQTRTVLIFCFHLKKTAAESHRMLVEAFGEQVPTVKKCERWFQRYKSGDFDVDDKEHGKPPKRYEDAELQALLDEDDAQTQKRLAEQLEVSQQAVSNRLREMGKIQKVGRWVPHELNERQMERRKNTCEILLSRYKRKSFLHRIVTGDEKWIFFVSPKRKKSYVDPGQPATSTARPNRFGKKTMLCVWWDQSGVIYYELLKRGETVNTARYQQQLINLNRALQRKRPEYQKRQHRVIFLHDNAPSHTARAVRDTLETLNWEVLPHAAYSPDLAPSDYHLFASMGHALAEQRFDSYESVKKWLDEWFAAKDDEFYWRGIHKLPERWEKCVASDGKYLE
Description: (§1) Escherichia coli JM109 bacteria were co-transformed with the pBC 3T3 plasmid (comprising a transposition reporter 2 ITR 3′ mariner-like element and the chloramphenicol resistance gene) and with the inducible vector encoding for the transposase (pKK-Tnp or pMal-Tnp) comprising the ampicillin resistance gene. The bacteria selection was performed on ampicillin (100 μg/ml) and chloramphenicol in order to verify the presence of the two plasmids.
(§2) The JM109 bacteria containing both the pBC 3T3 plasmid and the pKK-Tnp (or pMalC2X-Tnp) plasmid were placed in culture for 1 hr at 37° C. in 250 μl of LB. This inoculum was then poured into 5 ml of LB supplemented with 1 mM IPTG. The culture was titrated on LB plates (100 μl of a 1/1000 dilution) and on LB-Tet plates (12.5 μg/ml) (250 μl of the non-diluted culture). The culture induced by IPTG was then cultured for 5 hours at 32° C. (optimal temperature of transposase) under stirring (250 rpm). The bacterial suspension was then titrated on LB plates (100 μl of a 1/250,000 dilution) and on LB-tet plates (100 μl of the undiluted bacterial suspension). The plates were placed at 37° C. overnight. The following day, the colonies were counted on LB and LB-Tet plates, and the transposition frequency (equal to the number of tetracycline bacteria over the number of bacterial per 1 ml of undiluted bacterial suspension) was calculated.
(§3) In order to evaluate the transposition efficiency of systems associating a hyperactive transposase and a pseudo-transposon that is also hyperactive, various combinations were tested in the transposition test in bacteria described in part I, paragraph I-B above.

[2] = target: T2, Mos-1 transposase FTY (Drosophila mauritiana, UniProt Q7JQ07 SEQ:1-345, F53Y,T216A,Y237C)
T2 sequence: T1 sequence with R91Q, T216A, Y237C
Description: as §1, §2, §3

[3] = target: T3, Mos-1 transposase ET (Drosophila mauritiana, UniProt Q7JQ07 SEQ:1-345, E137K,T216A)
T3 sequence: T1 sequence with Y53F, R91Q, E137K, T216A
Description: as §1, §2, §3

[4] = target: T4, Mos-1 transposase FT (Drosophila mauritiana, UniProt Q7JQ07 SEQ:1-345, F53Y,T216A)
T4 sequence: T1 sequence with R91Q, T216A
Description: as §1, §2, §3

[5] = target: T5, Mos-1 transposase FETY (Drosophila mauritiana, UniProt Q7JQ07 SEQ:1-345, F53Y,E137K,T216A,Y237C)
T5 sequence: T1 sequence with R91Q, E137K, T216A, Y237C
Description: as §1, §2, §3

B1: ITR46 (dsDNA)
DNA 1: TCAGGTGTACAAGTATGAGATGTCGTTT
DNA 2: AAACGACATCTCATACTTGTACACCTGA
activity [1]: 3.3 fold
activity [2]: 19.4 fold
activity [3]: 6.7 fold
activity [4]: 3.7 fold
activity [5]: 2 fold
